Patent WO2017208210A1
Positions count from the first letter of the chain named. Blank lines part the entries; values can stand above or below the binder they belong to.

Assays:
[1] = target: T1, recombinant hMCAM-His (human) (UniProt P43121); assay: competitive ELISA on hMCAM-His against biotinylated rodent or chimeric antibody
T1 sequence: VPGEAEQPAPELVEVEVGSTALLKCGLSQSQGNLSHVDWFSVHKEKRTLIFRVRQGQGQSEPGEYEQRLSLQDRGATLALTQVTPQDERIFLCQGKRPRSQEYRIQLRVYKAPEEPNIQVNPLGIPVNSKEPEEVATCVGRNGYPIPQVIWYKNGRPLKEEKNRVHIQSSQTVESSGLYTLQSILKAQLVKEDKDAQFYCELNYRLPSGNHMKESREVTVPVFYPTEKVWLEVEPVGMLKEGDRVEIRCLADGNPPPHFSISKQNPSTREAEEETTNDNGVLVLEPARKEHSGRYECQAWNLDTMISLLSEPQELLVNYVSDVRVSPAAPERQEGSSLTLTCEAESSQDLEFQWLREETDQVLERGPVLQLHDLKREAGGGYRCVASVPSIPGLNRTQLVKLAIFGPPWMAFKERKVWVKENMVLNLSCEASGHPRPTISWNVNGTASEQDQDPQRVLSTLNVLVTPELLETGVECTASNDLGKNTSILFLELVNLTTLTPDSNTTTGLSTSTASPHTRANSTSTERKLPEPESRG

[2] = target: T2, human MCAM expressed on CHO cells transfected with the full length human MCAM gene (human) (UniProt P43121); assay: laminin/FACS assay, blocking of laminin 411 binding to hMCAM expressing CHO cells
T2 sequence: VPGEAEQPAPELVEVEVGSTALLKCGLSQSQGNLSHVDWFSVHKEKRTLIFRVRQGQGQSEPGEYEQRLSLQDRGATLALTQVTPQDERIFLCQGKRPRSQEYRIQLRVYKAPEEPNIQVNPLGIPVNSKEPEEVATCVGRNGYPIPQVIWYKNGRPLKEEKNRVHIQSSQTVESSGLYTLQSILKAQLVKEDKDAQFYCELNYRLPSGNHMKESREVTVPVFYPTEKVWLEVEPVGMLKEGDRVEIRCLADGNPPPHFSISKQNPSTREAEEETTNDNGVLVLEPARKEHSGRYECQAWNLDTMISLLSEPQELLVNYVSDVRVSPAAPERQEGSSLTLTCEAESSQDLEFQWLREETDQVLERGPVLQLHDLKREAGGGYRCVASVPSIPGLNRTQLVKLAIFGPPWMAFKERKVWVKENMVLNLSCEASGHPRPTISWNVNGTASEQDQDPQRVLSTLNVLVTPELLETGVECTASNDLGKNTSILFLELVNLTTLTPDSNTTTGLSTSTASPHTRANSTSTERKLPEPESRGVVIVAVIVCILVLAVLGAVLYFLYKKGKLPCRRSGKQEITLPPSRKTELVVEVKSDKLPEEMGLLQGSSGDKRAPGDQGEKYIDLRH

[3] = target: chimpanzee MCAM on circulating T cells (chimpanzee); assay: FACS, chimpanzee whole blood in vitro

- fold reduction in apparent affinity against the rodent parent [1]: < 2 x
- fold reduction in potency (laminin blocking) against the rodent parent [2]: < 2 x
B1: humanized 2120 antibody VH5VL3 (G-A N-deamidation mutant VH/conservative VL) (antibody, V domains shown)
VH: QVTLKESGPVLVKPTETLTLTCTVSGFSLTSNAVSWVRQPPGKALEWIAAISSGGTTYYNSAFKSRLTISRDTSKSQVVLTMTNMDPVDTATYYCARRYGYGWYFDFWGQGTLVTVSS
VL: DIQMTQSPSSLSASVGDRVTINCKASQNIYNSLAWYQQKPGKAPKVLIFNANSLQTGIPSRFSGSGSGTDFTLTISSLQPEDFATYYCQQFYSGYTFGQGTKLEIK

- concentration required to saturate MCAM [3]: 1 to 3 µg/mL
B2: PRX003 (humanized anti-MCAM antibody, human IgG1 kappa isotype) (antibody, V domains shown)
VH: B1 VH with Q1E
VL: B1 VL
